{"source": "patent US20250262210A1", "about": "(TRUSTEES OF COLUMBIA UNIVERSITY IN THE CITY OF NEW YORK, published 2025)", "key": {"RNF123": {"molecular_target": "T1, RNF123 (human, UniProt Q5XPI4 2-1314, limits assumed)", "T1 sequence (looked up)": "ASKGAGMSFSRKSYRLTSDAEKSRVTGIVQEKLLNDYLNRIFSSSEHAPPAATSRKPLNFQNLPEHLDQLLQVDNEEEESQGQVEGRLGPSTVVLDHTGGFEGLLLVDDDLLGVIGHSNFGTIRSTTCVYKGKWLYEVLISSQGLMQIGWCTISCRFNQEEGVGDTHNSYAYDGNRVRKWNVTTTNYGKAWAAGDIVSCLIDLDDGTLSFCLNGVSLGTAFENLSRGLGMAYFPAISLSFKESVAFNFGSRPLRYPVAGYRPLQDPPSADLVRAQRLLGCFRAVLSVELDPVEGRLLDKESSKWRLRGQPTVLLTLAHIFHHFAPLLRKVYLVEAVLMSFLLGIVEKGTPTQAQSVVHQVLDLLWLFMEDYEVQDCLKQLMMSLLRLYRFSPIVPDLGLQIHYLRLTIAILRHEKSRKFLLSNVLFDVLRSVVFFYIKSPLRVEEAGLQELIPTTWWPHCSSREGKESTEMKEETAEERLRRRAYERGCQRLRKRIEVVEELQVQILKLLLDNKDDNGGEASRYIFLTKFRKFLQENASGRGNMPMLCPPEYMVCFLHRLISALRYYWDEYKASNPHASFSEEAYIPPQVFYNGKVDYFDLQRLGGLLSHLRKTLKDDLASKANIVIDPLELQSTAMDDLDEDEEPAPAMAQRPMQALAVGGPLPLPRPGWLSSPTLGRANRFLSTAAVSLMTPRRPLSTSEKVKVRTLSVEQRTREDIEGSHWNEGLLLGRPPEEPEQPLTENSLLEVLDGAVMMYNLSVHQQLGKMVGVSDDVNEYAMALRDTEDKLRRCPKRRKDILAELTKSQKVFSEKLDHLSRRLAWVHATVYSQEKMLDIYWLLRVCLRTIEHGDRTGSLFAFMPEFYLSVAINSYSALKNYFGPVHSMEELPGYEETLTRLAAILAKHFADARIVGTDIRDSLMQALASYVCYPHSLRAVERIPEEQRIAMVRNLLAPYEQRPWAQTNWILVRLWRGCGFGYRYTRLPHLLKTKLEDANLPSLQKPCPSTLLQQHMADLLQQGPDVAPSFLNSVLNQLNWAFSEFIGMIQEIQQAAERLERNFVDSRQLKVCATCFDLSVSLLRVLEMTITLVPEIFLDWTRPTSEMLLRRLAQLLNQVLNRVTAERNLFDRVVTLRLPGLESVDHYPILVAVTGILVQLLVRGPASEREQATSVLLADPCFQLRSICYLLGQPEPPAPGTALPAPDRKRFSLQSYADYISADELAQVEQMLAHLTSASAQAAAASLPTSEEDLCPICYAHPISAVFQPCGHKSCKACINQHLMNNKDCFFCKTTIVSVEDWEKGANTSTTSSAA", "assay": "IP/MS, LZTR1 wild type-FLAG, U87", "summary_of_the_method": "(§1)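 Extracted peptides in 3% acetonitrile/0.1% formic acid ran on a 50 cm C18 column into an Orbitrap Fusion, with MaxQuant identification and spectral counting.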"}, "MYO10": {"molecular_target": "MYO10 (human, UniProt Q9HD67 1-2058, limits assumed)", "sequence (Q9HD67 whole entry)": "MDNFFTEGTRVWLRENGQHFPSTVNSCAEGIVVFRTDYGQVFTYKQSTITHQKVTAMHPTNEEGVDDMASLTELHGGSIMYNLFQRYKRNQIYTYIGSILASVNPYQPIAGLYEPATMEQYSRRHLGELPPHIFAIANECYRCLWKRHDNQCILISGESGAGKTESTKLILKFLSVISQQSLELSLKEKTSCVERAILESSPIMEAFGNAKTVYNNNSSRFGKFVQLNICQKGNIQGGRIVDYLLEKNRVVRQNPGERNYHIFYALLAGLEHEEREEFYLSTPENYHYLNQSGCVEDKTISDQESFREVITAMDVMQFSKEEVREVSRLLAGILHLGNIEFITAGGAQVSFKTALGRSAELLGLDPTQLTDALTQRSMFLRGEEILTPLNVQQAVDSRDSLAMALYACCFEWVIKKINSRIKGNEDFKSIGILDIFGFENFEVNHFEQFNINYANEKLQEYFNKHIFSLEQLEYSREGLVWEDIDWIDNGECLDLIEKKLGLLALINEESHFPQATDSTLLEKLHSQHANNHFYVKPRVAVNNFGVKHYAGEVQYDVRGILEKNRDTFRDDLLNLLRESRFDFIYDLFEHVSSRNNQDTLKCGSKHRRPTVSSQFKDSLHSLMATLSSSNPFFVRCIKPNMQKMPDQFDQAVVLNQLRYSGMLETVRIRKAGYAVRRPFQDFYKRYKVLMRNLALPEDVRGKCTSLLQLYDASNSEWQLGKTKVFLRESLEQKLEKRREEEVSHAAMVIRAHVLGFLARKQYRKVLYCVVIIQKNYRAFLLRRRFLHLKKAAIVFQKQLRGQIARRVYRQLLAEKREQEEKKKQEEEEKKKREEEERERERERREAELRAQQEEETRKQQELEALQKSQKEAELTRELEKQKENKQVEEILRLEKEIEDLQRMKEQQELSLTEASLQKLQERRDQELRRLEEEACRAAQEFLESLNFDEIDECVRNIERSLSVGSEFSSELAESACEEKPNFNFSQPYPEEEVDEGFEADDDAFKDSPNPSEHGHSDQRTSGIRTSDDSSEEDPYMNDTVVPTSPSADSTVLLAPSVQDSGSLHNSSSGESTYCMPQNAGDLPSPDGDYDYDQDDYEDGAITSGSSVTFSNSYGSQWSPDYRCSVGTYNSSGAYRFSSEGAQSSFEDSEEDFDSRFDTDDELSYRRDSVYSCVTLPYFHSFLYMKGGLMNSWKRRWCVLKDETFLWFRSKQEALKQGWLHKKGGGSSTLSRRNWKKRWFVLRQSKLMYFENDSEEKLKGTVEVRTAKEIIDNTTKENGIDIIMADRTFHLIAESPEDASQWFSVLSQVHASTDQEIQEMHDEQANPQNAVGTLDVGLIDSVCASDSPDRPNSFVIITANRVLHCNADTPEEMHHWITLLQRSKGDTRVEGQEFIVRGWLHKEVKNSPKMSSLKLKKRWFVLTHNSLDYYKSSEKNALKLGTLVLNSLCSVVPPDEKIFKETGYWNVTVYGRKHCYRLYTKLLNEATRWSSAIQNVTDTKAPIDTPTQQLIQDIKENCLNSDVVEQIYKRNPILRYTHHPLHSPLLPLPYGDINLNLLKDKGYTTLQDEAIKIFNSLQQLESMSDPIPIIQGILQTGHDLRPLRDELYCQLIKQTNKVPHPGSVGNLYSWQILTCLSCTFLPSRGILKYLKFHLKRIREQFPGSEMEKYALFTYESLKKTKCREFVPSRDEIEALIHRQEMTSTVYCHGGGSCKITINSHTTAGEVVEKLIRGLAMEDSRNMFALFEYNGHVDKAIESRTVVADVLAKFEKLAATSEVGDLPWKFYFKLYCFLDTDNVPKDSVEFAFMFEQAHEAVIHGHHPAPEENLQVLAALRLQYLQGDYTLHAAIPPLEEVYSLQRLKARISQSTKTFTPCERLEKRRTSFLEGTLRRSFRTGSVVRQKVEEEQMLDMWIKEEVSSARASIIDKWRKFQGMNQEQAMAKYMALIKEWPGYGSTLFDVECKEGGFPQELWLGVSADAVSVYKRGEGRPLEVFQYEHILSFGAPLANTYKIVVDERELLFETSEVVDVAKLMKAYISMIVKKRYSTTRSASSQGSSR", "assay": "IP/MS, LZTR1 wild type-FLAG, U87", "summary_of_the_method": "as §1"}}}
{"binder": "LZTR1-FLAG (other, human, UniProt Q8N653 1-840, looked up, Expressed in HEK 293T, HeLa or U87 cells; used as cell lysate; also called LZTR1 wild type-FLAG; LZTR1 WT; not shown: FLAG tag at the C-terminus) MAGPGSTGGQIGAAALAGGARSKVAPSVDFDHSCSDSVEYLTLNFGPFETVHRWRRLPPCDEFVGARRSKHTVVAYKDAIYVFGGDNGKTMLNDLLRFDVKDCSWCRAFTTGTPPAPRYHHSAVVYGSSMFVFGGYTGDIYSNSNLKNKNDLFEYKFATGQWTEWKIEGRLPVARSAHGATVYSDKLWIFAGYDGNARLNDMWTIGLQDRELTCWEEVAQSGEIPPSCCNFPVAVCRDKMFVFSGQSGAKITNNLFQFEFKDKTWTRIPTEHLLRGSPPPPQRRYGHTMVAFDRHLYVFGGAADNTLPNELHCYDVDFQTWEVVQPSSDSEVGGAEVPERACASEEVPTLTYEERVGFKKSRDVFGLDFGTTSAKQPTQPASELPSGRLFHAAAVISDAMYIFGGTVDNNIRSGEMYRFQFSCYPKCTLHEDYGRLWESRQFCDVEFVLGEKEECVQGHVAIVTARSRWLRRKITQARERLAQKLEQEAAPVPREAPGVAAGGARPPLLHVAIREAEARPFEVLMQFLYTDKIKYPRKGHVEDVLLIMDVYKLALSFQLCRLEQLCRQYIEASVDLQNVLVVCESAARLQLSQLKEHCLNFVVKESHFNQVIMMKEFERLSSPLIVEIVRRKQQPPPRTPLDQPVDIGTSLIQDMKAYLEGAGAEFCDITLLLDGHPRPAHKAILAARSSYFEAMFRSFMPEDGQVNISIGEMVPSRQAFESMLRYIYYGEVNMPPEDSLYLFAAPYYYGFYNNRLQAYCKQNLEMNVTVQNVLQILEAADKTQALDMKRHCLHIIVHQFTKVSKLPTLRSLSQQLLLDIIDSLASHISDKQCAELGADI", "values": [{"measurement": "binding result", "setting": "RNF123", "value": "binds"}, {"measurement": "binding result", "setting": "MYO10", "value": "binds"}]}
